This series is described as follows: soluble on expression in E. coli; label from the status in PepcDB or PDB records.
As to “MVYKPLEASDRTELRALQSDRLQRIVTHAHENVPFYREKLDAAGVSPEDIQSIDDITKLPMTTKEDFRDEYPDGLFAVDDEEVARIHASSGTTGKPKIVSYTDDDLDTWSEVVARSLAASGTEAGDTVQNAYGYGLFTGGLGIHYGTEELGASVVPIGSGQTQRQVELMTDLESDVFTCTPSYALYLAETAEEMGHDPRDLPISTIIFGAEPCTDPMREEIEERLGVDGIDIYGLSEIIGPGVSCECHEAKDGLHIWEDHFYPEVIDPHTKEPVEEGEEGELVLTTLTKEALPVFRYRTGDLTTLNYDECACGRTMVRMDNVTGRTDDLLIVRGVNLYPSEIEHAVLDIDGVAPHYRIDLYKEDNLDILELTIERTAEQGPGDKALEDEIIERLENVLAFTPDELELVAPGSIERTQVGKVKRVYDHRD”, the “soluble on expression in E. coli” value is listed as “not soluble”.

As to “MERKSPSGKKFRSKPQLARYLGGSMDLSTFDFRTGKMLMSKMNKSRQRVRYDSSNQVKGKPDLNTALPVRQTASIFKQPVTKITNHPSNKVKSDPQKAVDQPRQLFWEKKLSGLNAFDIAEELVKTMDLPKGLQGVGPGCTDETLLSAIASALHTSTMPITGQLSAAVEKNPGVWLNTTQPLCKAFMVTDEDIRKQEELVQQVRKRLEEALMADMLAHVEELARDGEAPLDKACAEDDDEEDEEEEEEEPDPDPEMEHV”, the “soluble on expression in E. coli” value is given as “soluble”.

In the case of “MRRLNRFKAPDEKVNTLFQVYKTISFWKVVKNTVVVEFGRFFPWMGGKRNIYRACLGMKIGKKTAIAYKVMPDLFFPEKITIGENSIIGYHTTILTHEYLLSEYHVGEVVIGKNVMVGANVTILPGIEIGDGAIVAAGAVVSKDVPPESFAYGNPLVIKEKAALEHHHHHH”, the “soluble on expression in E. coli” value is listed as “soluble”.

In the case of “VRPHWRDLETLRLAAQRFGDGDLSSRTRIFRRSDIRTLAQHFNQMADRIESLISNQRELTNAVSHELRTPISRLSFELEQLNKQVDAEVRHDLIEDMRADLGELEEMVSELLTYARLEHGNVGSHREIVDAASWLDSVVADVALEAEAAGVTCEISACQVEQIRIEPRFMARAVINLLRNAIRHAHSRVEIALLDQGDSCQIRVNDDGPGIPADARQKIFEPFSRLDDSRDRSTGGFGLGLAIVHRVAQWHGGYAEALETPQGGASFRLTWERPR”, the “soluble on expression in E. coli” value is on record as “not soluble”.

As to “MSASESDLAIVAEQLGREPRGVIEVSYHTPDGVPGVVMTTPKLDDGTPFPTLYYLTEPRLTAEASRLEVAHVMKWMTDRLHSDEELRQDYERAHEYFLAKRNALEDLGTDFSGGGMPDRVKCLHVLIAYALAEGPDHFRLGTEAVALAADHGGLRGTAIPQDWPTVESLGMSLDQFDFSHADVPGASK”, the “soluble on expression in E. coli” value was “not soluble”.

Consider “MDISVIDATKVNTETGLHIGESNAPVKMIEFINVRCPYCRKWFEESEELLAQSVKSGKVERIIKLFDKEKESLQRGNVMHHYIDYSAPEQALSALHKMFATQDEWGNLTLEEVATYAEKNLGLKEQKDATLVSAVIAEANAAHIQFVPTIIIGEYIFDESVTEEELRGYIEK”, for which the “soluble on expression in E. coli” value is reported as “soluble”.

For “MGSDKIHHHHHHMSNQTLKKISELDVFCLMVFKVIFQTGHANIAAKQLNVSAPKISRCLNMLRATFDDELFYRRQLGLKPTPMAEFLYEPVCQFCEAVLKIEQSISEKSSELASERLRVAVTPSIMASLSLAFSRSNARDAFSQLQFVIWGDDSADQIHNGELDMGVTFDACNEHPLSVEALGCLSGVCLAANEEHAIWSQSEPLTLETICRHPFLCLDGKGFNDKIDPLEVFARQNGADIDSIERVSSRDEWYSHLLTMNSVAFLPCSEAEICGALPGIRVVRLSDEEVGRLHGESMSPQYLLLENPAEYRRYSLEQRELIIQLIKQLLVKC”, the “soluble on expression in E. coli” value is reported as “not soluble”.

With “MQENPTVWLFDLDNTLHDADAGIFHLINRAMTRYMARRLKLSESAASDLRQDYWHRYGATLAGLQIHHPEIDIAEFLRESHPIDAILTRLHGMADTENTLCRLNGRKAVFSNGPSFYVRAVAGALGLENCFDALFGTDDFGLLYKPNPQAYLNVCRLLDVPPECCIMVDDSADNLHQAKALGMKTVRFGAKSHAPPFIDASVSDMAQLARYAETLSERRQNHYNTRTPRKYERMLCVKPSLS”, the “soluble on expression in E. coli” value is given as “not soluble”.

In the case of “MNQKDTRKETLEFNKLQKRLRRNVGNAITDYNMIEEGDVVMACISGGKDSFAMLDILLNLQKAAPIKFEVVAVNLDQKQPGFPEHILPEYFETLNIPYYIVDKDTYSVVKEKVPEGKTTCGLCSRLRRGTLYSFAEKIGATKLALGHHMDDIVETMFLNMFHGSRLKAMPPKLRSDDGRNVVIRPLTYCREKDLIKYAEHKDFPIIPCNLCGSQENLQRQAIKAMLIDWDKKTPGRVEAIFKSIQNVSPSQLADRELFDFVNLPLDRDGSREEYEFSEAVVSSTNIDESLFIDVTNI”, the “soluble on expression in E. coli” value is “soluble”.

For “MKLVFYGAGNMAQAIFTGIINSNNLNANDIYLTNKSNEQALKSFAEKLGVNYSYDDEALLKDADYVFLGTKPHDFENLANRIREHITNDNRFISIMAGLSIDYIRQQLNTNNPLARIMPNTNAQVGHSVTGISFSNNFDPKSKNEVDELINAFGSVIEVSEEHLHQVTAITGSGPAFLYHVFEQYVKAGTELGLERNQVEESIRNLIIGTSKMIERSDLSMSQLRKNITSKGGTTQAGLDALSQYDIVSMFEDCLGAAVNRSMELSHKEDELEHHHHHH”, the “soluble on expression in E. coli” value was “soluble”.

“MLTPRFDIQPAVSVILPTFDRAPLLASAIESVVAQNFAEWELIVVDDGSSDETFEIVDGYLNQHANIRYMKHRNRKAALSRNAGIQAAFGRYITFLDSDDLYLPEHLESRLHLLESMPEVRLISGGFVCEGDPWVRDRDDPEKLIHVSECIAGATMFGRRELFLDIGGFRALDYAEDTDLWERAARSHKVLKIDQPVSYIYRRSPGSITRTYKPAKPLEHHHHHH”: the “soluble on expression in E. coli” value is reported as “soluble”.

Take “MSGELKDRLVARALEEGFVSCRVCRPWDVPEMPARLGAFVEAGYHGQMGWMAERMEWRGDPAALWPEARSVIMLAESYAPDTDPMEVVGQPDRGAISVYARGKDYHDLVKKRLKRLARWLIEAGGGEVKVFVDTAPVPEKALGQAAGLGWQGKHTNLVSRDWGNWAFLGSVFTTLDLPSDPVGRDNCGSCSACLTACPTDAFPAPYRLDARRCISYLTIEHKGPVDEELRAKLGNRIYGCDDCLAACPWNKFAVAASDLRYGARPELSAPALADLARLDDAGFREMFSGSPIKRIGRDRFVRNVLYAIGNSGLPALRPVAQDLAQDSDPTVADAARWAAAKLAMSR”: the “soluble on expression in E. coli” value was “not soluble”.

For “LPAGLYFVGTPIGSARDITLRALDVLASAEVIAAEDTRSLRHLLDIHGVPLDGRRVLAYHDHSGAGAQARLLEALAEGKSVAYASEAGMPLIADPGFELSRAAAEAGHMVTCAPGPS”, the “soluble on expression in E. coli” value is “not soluble”.

Turning to “STDNTTSSDLIKNVETARSTIDGLIESLGWIELNYRCERQCNWDEVCYTPSWGPSPMGMTEPGSHNEGFGTHFDESRQRLVINSKLQCININDLMVNRNH”, the “soluble on expression in E. coli” value was “soluble”.

For YPQVIVDHPFLYLIRNRKSGIILFMGRVMNPHH, the “soluble on expression in E. coli” value is recorded as “soluble”.

In the case of “GPGYNEPQDKKTMMMNEEDDGNGMDELLAVLGYKVRSSEMADVAQKLEQLEVMMSNVQEDDLSQLATETVHYNPAELYTWLDSMLTDLNPPSSNAEYDLKAIPGDAILNQ”, the “soluble on expression in E. coli” value is “soluble”.

Consider “MKPQWQQYIQIINQVVKPALGCTEPIAAAYAAAVARTLLNDDPDSIAVQVSDNLYKNSMGVYVPGTGKIGLAIAAAAGALAGNADAGLEVLASVTPEQVAQAQALIDAAKVKVERTETDEFIYCCVTLTSGEQEAMVKICGGHTLIAEKRLNGELVFTADNAQAKATGSICDGVDINIESIYRFAEEVPFEEIQFILKASELNSKLSDEGMSKPYGLEVGRTMKNGIAAGIIGEDLLNKIVMLTAAASDARMGGANLPAMSNLGSGNQGIAATIPVVITAQCYKVSEEKLARALIMSHLGAIYIKSHYPPLSAFCGNTVTSAAASMAMVYLAGGSFEQSCFAIQNVISDSSGMVCDGAKASCAMKVSTSSSAAVRSFLMALSSQNVSGQGIIANHVEKTIKNIGKMVLNGMSSTDVTIINIMSE”, for which the “soluble on expression in E. coli” value is recorded as “not soluble”.

The values are drawn from the DeepSol protein solubility set.
